This series concerns the molecule itself. In words: dynamic light scattering; thermally denatured RIα(92–381), soluble aggregates; 10 mM K-phosphate buffer, 50 mM KCl, pH 7.5; measured at 22 and 60°C.

B1: human RIα(92–381), regulatory subunit RIα of cAMP-dependent protein kinase (PKA), truncated form with the tandem CNB domains A and B (domain or fragment, UniProt P10644 92-381, looked up)
chain: KGRRRRGAISAEVYTEEDAASYVRKVIPKDYKTMAALAKAIEKNVLFSHLDDNERSDIFDAMFSVSFIAGETVIQQGDEGDNFYVIDQGETDVYVNNEWATSVGEGGSFGELALIYGTPRAATVKAKTNVKLWGIDRDSYRRILMGSTLRKRKMYEEFLSKVSILESLDKWERLTVADALEPVQFEDGQKIVVQGEPGDEFFIILEGSAAVLQRRSENEEFVEVGRLGPSDYFGEIALLMNRPRAATVVARGPLKCVKLDRPRFERVLGPCSDILKRNIQQYNSFVSLSV
notes: cAMP-dependent protein kinase type I-alpha regulatory subunit (RIα), human, residues 92-381, numbering according to Swiss-Prot P10644; lacks the N-terminal docking/dimerization domain; In the aggregation experiments the protein was thermally denatured; the self-association is that of the partly unfolded, non-native state; also called apo-RIα(92–381); wt RIα(92–381); source: E. coli BL21 (DE3) …
With B1, the binding result was “binds”.

The values are drawn from article PMC3048872, “The Regulatory Subunit of PKA-I Remains Partially Structured and Undergoes β-Aggregation upon Thermal Denaturation” (PLoS ONE, 2011).
